The source of these data is paper PMC6238601, “Specificity for deubiquitination of monoubiquitinated FANCD2 is driven by the N-terminus of USP1” (Life Science Alliance, 2018).

What all share (details): both partners purified
Experiment [1] deals with T1, human FANCD2 (hsFANCD2), non-ubiquitinated (human, UniProt Q9BXW9 1-1451).
T1 construct: FANCD2 (Fanconi anemia group D2 protein), human, full length; gene synthesised and optimised for Spodoptera frugiperda; His-3C tag; tags were not removed from FANCD2; also called Fanconi anemia group D2 protein; source: Sf21 (baculovirus), purified (Ni-NTA, anion exchange, SEC)
Briefly: pull-down; N-terminal Strep-tagged UAF1 complexed with E. coli USP1, 10 μg bound to MagStrep beads and washed; 10 μg recombinant substrate, 1 h on ice; 50 mM Tris pH 7.5, 120 mM NaCl, 5% glycerol, 1 mM DTT, 0.01% Triton X-100, 0.01% ovalbumin; SDS-PAGE; beads without USP1–UAF1 as control.

The target in experiment [2] is T2, human PCNA-K164Ub (hsPCNA-Ub) (human | , UniProt P12004 1-261; P0CG48 1-76, K164 monoubiquitinated (isopeptide bond to ubiquitin) | C-terminus linked to K164 of PCNA).
T2 construct: PCNA, human; ubiquitin; Covalent conjugate; also called monoubiquitinated PCNA
The description is as above.

Experiment [3] has as its target T3, UAF1 with an N-terminal Strep tag (human, UniProt Q8TAF3 1-677).
T3 construct: UAF1 (USP1-associated factor 1), human; Strep11 tag and linker GGSGGS were added N-terminal of the His-3C tag; as the Strep tag is used for capture, the His-3C stretch was probably kept too (surmise); also called Strep-tagged UAF1; N-terminal Strep-tagged UAF1; source: Sf21 (baculovirus), purified; not shown: Strep11, N-terminal, kept
The description is as above.

The target in experiment [4] is T4, UAF1 (USP1-associated factor 1) (human, UniProt Q8TAF3 1-677).
T4 construct: UAF1 (USP1-associated factor 1), human; N-terminal His-3C tag; the methods say tags were removed except from FANCD2, FANCI, USP2 and GST-ubiquitin; source: Sf21 (baculovirus), purified (Ni-NTA, anion exchange, SEC); not shown: His, N-terminal, cleaved
The experiment can be described thus: SEC; USP1 and UAF1 alone or together at 15 μM, 15 min on ice; SD200 Increase (10/300); 20 mM Tris pH 8.0, 150 mM NaCl, 5% glycerol, 5 mM DTT; fractions on SDS-PAGE, Coomassie.

Substitutions are numbered along the chain they refer to. Names and notes keep the numbering of the source.

B1: USP1^Δ1Δ2-R22K–UAF1 complex (Strep-tagged UAF1) (complex)
chain 1: MPGVIPSESNGLSRGSPSKKNKLSLKFFQKKETKRALDFTDSQENEEKASEYRASEIDQVVPAAQSSPINCEKRENLLPFVGLNNLGNTCYLNSILQVLYFCPGFKSGVKHLFNIISRKKEALKDEANQKDKGNCKEDSLASYELICSLQSLIISVEQLQASFLLNPEKYTDELATQPRRLLNTLRELNPMYEGYLQHDAQEVLQCILGNIQETCQLLKKEEVKNVAENEVKPINKGEEQIGFELVEKLFQGQLVLRTRCLECESLTERREDFQDISVPVQEDELSKVEESSEISPEPKTEMKTLRWAISQFASVERIVGEDKYFCENCHHYTEAERSLLFDKMPEVITIHLKCFAASGLEFDCYGGGLSKINTPLLTPLKLSLEEWSTKPTNDSYGLFAVVMHSGITISSGHYTASVKVTDLNSLEQSLKEYEGKWLLFDDSEVKVTEEKDFLNSLSPSTSPTSTPYLLFYKKL
chain 2: not shown
notes: USP1, human; Δ229–408, Δ608–737, R22K; as m11; UAF1, human; as m7; source: E. coli USP1^Δ1Δ2-R22K complexed with Sf21 Strep-UAF1, both purified; not shown: Strep11, N-terminal, kept
As for B1, the binding result in experiment [1] is listed as “binds”.

B2: USP1^Δ1Δ2-L25A–UAF1 complex (Strep-tagged UAF1) (complex)
chain 1: B1 chain 1 with K22R, L25A
chain 2: not shown
notes: USP1, human; Δ229–408, Δ608–737, L25A; as m12; UAF1, human; as m7; source: E. coli USP1^Δ1Δ2-L25A complexed with Sf21 Strep-UAF1, both purified; not shown: Strep11, N-terminal, kept
As for B2, the binding result in experiment [1] is listed as “binds”.

B3: USP1^Δ1Δ2–UAF1 complex (Strep-tagged UAF1) (complex)
chain 1: B1 chain 1 with K22R
chain 2: not shown
notes: USP1, human; Δ229–408, Δ608–737; as m8; UAF1, human; as m7; Bait complex formed beforehand and held on MagStrep beads; also called UAF1–USP1; USP1–UAF1; source: E. coli USP1^Δ1Δ2 complexed with Sf21 Strep-UAF1, both purified; not shown: Strep11, N-terminal, kept
Turning to B3, the binding result in experiment [2] is recorded as “binds”.

B4: USP1^Δ1Δ2 (Δ229–408, Δ608–737), E. coli-expressed (enzyme, human, UniProt O94782 1-785, looked up)
chain: B1 chain 1 with K22R
notes: USP1, human; Insertion 1 (Δ229–408) and Insertion 2 (Δ608–737) deleted; gene synthesised and optimised for E. coli; GST-3C tag from pGEX6P; a few residues of the 3C site may be left after cleavage (surmise); also called E. coli–expressed USP1^Δ1Δ2; source: E. coli BL21, purified (GSH resin, SEC)
For the molecule B4, in experiment [3], the binding result is listed as “binds”.

B5: USP1^Δ1Δ2-L25A, E. coli-expressed (enzyme, human, UniProt O94782 1-785, looked up)
chain: B1 chain 1 with K22R, L25A
notes: USP1, human; Δ229–408, Δ608–737, L25A (one of the alanine point mutants of the N-terminus); source: E. coli BL21, purified (GSH resin, SEC)
For the molecule B5, the binding result in experiment [3] is “binds”.

B6: USP1^Δ1Δ2-R22A, E. coli-expressed (enzyme, human, UniProt O94782 1-785, looked up)
chain: B1 chain 1 with K22A
notes: USP1, human; Δ229–408, Δ608–737, R22A; source: E. coli BL21, purified (GSH resin, SEC)
For the molecule B6, the binding result in experiment [3] is on record as “binds”.

B7: USP1^Δ1Δ2-R22K, E. coli-expressed (enzyme, human, UniProt O94782 1-785, looked up)
chain: B1 chain 1
notes: USP1, human; Δ229–408, Δ608–737, R22K; source: E. coli BL21, purified (GSH resin, SEC)
For B7, the binding result in experiment [3] is “binds”.

B8: USP1^ΔNΔ1Δ2 (Δ1–54, Δ229–408, Δ608–737), Sf21-expressed (domain or fragment, human, UniProt O94782 55-785, looked up)
chain: SEIDQVVPAAQSSPINCEKRENLLPFVGLNNLGNTCYLNSILQVLYFCPGFKSGVKHLFNIISRKKEALKDEANQKDKGNCKEDSLASYELICSLQSLIISVEQLQASFLLNPEKYTDELATQPRRLLNTLRELNPMYEGYLQHDAQEVLQCILGNIQETCQLLKKEEVKNVAENEVKPINKGEEQIGFELVEKLFQGQLVLRTRCLECESLTERREDFQDISVPVQEDELSKVEESSEISPEPKTEMKTLRWAISQFASVERIVGEDKYFCENCHHYTEAERSLLFDKMPEVITIHLKCFAASGLEFDCYGGGLSKINTPLLTPLKLSLEEWSTKPTNDSYGLFAVVMHSGITISSGHYTASVKVTDLNSLEQSLKEYEGKWLLFDDSEVKVTEEKDFLNSLSPSTSPTSTPYLLFYKKL
notes: USP1, human; N-terminus (Δ1–54), Insertion 1 (Δ229–408) and Insertion 2 (Δ608–737) deleted in the full-length background; the G670A/G671A site lies in the deleted Insertion 2; also called minimal USP1 catalytic domain; catalytic domain of USP1; source: Sf21 (baculovirus), purified (Ni-NTA, anion exchange, SEC)
Regarding B8, the binding result in experiment [4] was “binds”.

B9: USP1^ΔNΔ1Δ2 (Δ1–54, Δ229–408, Δ608–737), E. coli-expressed (domain or fragment, human, UniProt O94782 55-785, looked up)
chain: B8 chain
notes: USP1, human; Δ1–54, Δ229–408, Δ608–737; also called E. coli–expressed USP1^ΔNΔ1Δ2; source: E. coli BL21, purified (GSH resin, SEC)
As to B9, in experiment [3], the binding result is “binds”.

B10: USP1^ΔNΔ1Δ2–UAF1 complex (Strep-tagged UAF1) (complex)
chain 1: B8 chain
chain 2: not shown
notes: USP1, human; Δ1–54, Δ229–408, Δ608–737; as m9; UAF1, human; as m7; Bait complex formed beforehand and held on MagStrep beads; source: E. coli USP1^ΔNΔ1Δ2 complexed with Sf21 Strep-UAF1, both purified; not shown: Strep11, N-terminal, kept
As to B10, the binding result in experiment [2] is listed as “binds”.
